Measurements: the nanobody polyreactivity screen of Harvey et al. (2022)

Assay: yeast display, Sf9 membrane polyspecificity reagent, FACS + sequencing; frameworks hold sequencing errors
Outline: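 A synthetic nanobody library was expressed on Saccharomyces cerevisiae BJ5465 by galactose induction for 36–48 hours. The library was stained for 1 hour at 4 °C with 10% biotinylated, detergent-solubilized Sf9 membrane reagent and enriched with streptavidin microbeads before FACS. Low and high (top ~1%) gates were set on anti-HA fluorescence for expression and streptavidin fluorescence for reagent binding, and each polyreactivity label reflects the gate of origin.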

Sequence | polyreactivity (PSR sort gate)
QVQLVESGGCLVKAGCSLRLSCAASGRIFFVNAMGWYRPAPGKECELVAAISRGGSTNYADSVKGRFTISRDNAMNTVYLQMNILKPEDTEVYYCAAGYVRYPGVIDEYWGPGTQVTVSS | low polyreactivity
QVQLVESGGCLVQAGCSGRLSCAASGYTLTINVMGWDRQAPGKERELVAAITTSCASTNYADSVKGRFTISRDNAKNSVYLKMNSLKPEDTSVYYCAADYLSFVVVKLYGYWGQRTQVTVSS | low polyreactivity
QVQLVESGGCLVQAGCSLSLSCAASGITFRPYAMGWYRQAPGKERELVAAIRWDGGSTYYADSVKGRFTISRDNAKNTVYLQMNSMKPEDTAVDYCAAKRPTHVRKMDYWGQGTQVTVSS | high polyreactivity
QVQLVESGGCLVQAGGRLRLICAASGRTFFFNAMGWYRQAPGKERELVAAISRGGSRTFYADSVKGRFTISRDNEKNTVYLQMNSLKPEDNAVYYCNDVAQSGRYDYWGQGTQVTVSS | high polyreactivity
QVQLVESGGCLVQAGGRLRLSCAASGRIFRGYAMGWYRQAPGKERELVARITSGGRTYYADSVKGRFTISRDNAKNTVYLQMNSLKPEDTAVYYCAAPPSVRTRKAYYYWGQGTQVTVSS | high polyreactivity
QVQLVESGGCLVQAGGRLRLSCAASGYIFDRNAMGWYRQAPGTERELVAAITKRGGITYYADSVKGRFTISRDNAKFSGYLQMNSLKPEDTAVYYCNALARSSRYDYWGQGTQVTVSS | low polyreactivity
QVQLVESGGCLVQAGGSHRLSCAASGYIVWENAMGWYRPAPGKERELVAAITVTGGGTYYADSVKGRFTISRDNSKNPGYLHMNSLKPEDTAVYYCAPDEDNPWLWFYYWGQGTQVTVSS | low polyreactivity
QVQLVESGGCLVQAGGSHRLSCASSGRTFYRKAMGWYRQAPGKERELVAAISSGTSTNYADSVKGRFTISRDYAKNTVYLQMNSLKPEDTAVYYCAKERPRGAPAYYSRFYDYWGQGTQVTVSS | high polyreactivity
QVQLVESGGCLVQAGGSIRLSCAASGSIFKSNAMGWYRQAPGKERELVAAISNGGITNYADSVKVRFTISRDNAKNTDYLQMNSLKPEDTAVYYCNARNNYWWYCPGYDYWGQGTQLTVSS | low polyreactivity
QVQLVESGGCLVQAGGSLGLSCAASGFSFLEYAKGWYRQAPGKERELVAVISRRGGRTYYADSVKGRFTISRDNAKITVFLQMNSLNPEDTEVYYWNARISGCVWHYDYWGQGTQVTVSS | high polyreactivity
QVQLVESGGCLVQAGGSLPLSCAASGIIFAQYVMGWYIQATGKESELVAAIRTSGGRTYYADSVKGRFTISRDNSKNTVYLQMNSLKPEDTAVYYCAAYGKPTFRSVDYWGQGTQVTVSS | high polyreactivity
QVQLVESGGCLVQAGGSLRLICAASGIIFWGYFMGWYRQAPAKERELVAAISRGGRTYYADSVKGRFTISRDNAKNTVYLQMNSLKPEDTAVDYCAARWGRSYLPQPFQFEYDYWGQGTQVTVSS | high polyreactivity
QVQLVESGGCLVQAGGSLRLRGAASGRIFGYYAMGWYRQAPGKEWELVAAISRGGSTNYADSVKGRFTISRDNAKNTVYLQMNSLKPEDTAVYYCAAVQRTHPRYYYWGQGTQVTVSS | high polyreactivity
QVQLVESGGCLVQAGGSLRLSCAASGFIFRQYAMGWYRQAPGKERELVAAISTGGGRTYYADSVKGRFTISRDNAKNTVYLQMNSLKPEDTAVYYCAAGYPYSYRDYYYWGQGTQVTVSS | high polyreactivity
QVQLVESGGCLVQAGGSLRLSCAASGFIFRWYAMGWYRQAPGKERELVAAISLGGSTNYADSVKGRFTISRDNAKNTVYLQMNSLKPEDTAVYYCNARYVSYSGRYVIGQYVKYDYWGKGTQVTVSS | high polyreactivity
QVQLVESGGCLVQAGGSLRLSCAASGFIFWDYAMGWYRQAPGKERELVAAISDSGGDKYYADSVKGRFTISRDNAKNTVYLQMNSLKPEDTAVYYCAADVELWVFRGQQYDYWGQGTQVTVSS | low polyreactivity
QVQLVESGGCLVQAGGSLRLSCAASGFTFHDYAMGWYRQAPGKERELVAAITKSGGRTYYADSVKGRFTISRDNAQNTVYLQMNSLKPVDTAVYYRAAKSYWGQVTQVTVSS | high polyreactivity
QVQLVESGGCLVQAGGSLRLSCAASGFTFHNNVMGWYRQAPGKDRELVATISKSGGSTYYADSEKGRFTISRDNAKNTVYLQMNSLKPEDTAVYYCDRRYRYYGRYGYWGQGTQVTVSS | high polyreactivity
QVQLVESGGCLVQAGGSLRLSCAASGGTFRGYAMGWYRQAPGKETELVAASSTSGSRTSYADSVKGRFTISRDNAKNTVYLQMNSLKPEDNAVYYCNADPIHGVYSRFRLGGYWGQGTQVTVSS | high polyreactivity
QVQLVESGGCLVQAGGSLRLSCAASGITFKYYVMGWYRQAPGKEREFVAAISWGGGSPYYADSVKGRCTISRDNAKNTVYVQMNSLKPEDTAVYYCAATSAYGRYRYYYWGQGTQVTVSS | high polyreactivity
QVQLVESGGCLVQAGGSLRLSCAASGLIFYRYAMGWYRQAPGKERELVAAISWSGGTTYYADSVKGRFTISRDNAKNSVYLQMNSLKPEDTAVYYCAADAVYYHFDYWGQGTQVTVSS | high polyreactivity
QVQLVESGGCLVQAGGSLRLSCAASGLTFGSNAMGWYRQAPGKERELVAAISSTGSTYYADSVKGRFTISRDNAKNTVYLQMNSLKPEDTAVYYCAAYDYWGQGTQVTVSS | low polyreactivity

Sequence | polyreactivity (PSR sort gate)
QVQLVESGGCLVQAGGSLRLSCAASGNTFWVNSMGWYRQAPGKERELVAGITSSGDSTSYADSVKGRFTISRDNAKNTVYLQMNSLKPEDTAVYYCAADVGGFWYTEYYWGQGTQVTVSS | high polyreactivity
QVQLVESGGCLVQAGGSLRLSCAASGRIFPGYAMGWYRQAPGKESEFVAAITASGGTTYYADSVKGRFTISRDNAKNTVYLQMNCLKPEDTAVYYCAKYRYTVAGYNYWGQGTQVTVSS | high polyreactivity
QVQLVESGGCLVQAGGSLRLSCAASGRIFQAYAMGWYRQAPGKERELVAAINRSGNTNYADSVKGRFTISRDNAKNTVYLQMNSLKPEDTAVYYCAADAVSFSYFGYQRMDYWGQGTQVTVSS | low polyreactivity
QVQLVESGGCLVQAGGSLRLSCAASGRIFQSYAMGWYRQAPGKESELVAAISQSGGSTYYADSVQGRFTISRDNAKNTVYVQMNSLKPEDTAVYYCAARSRWYKRYDYWGQGTQVTVSS | low polyreactivity
QVQLVESGGCLVQAGGSLRLSCAASGRIFRDKAMGWYRQAPGKEREFVARITISTGTTYYADSVKGRFTISRDNAKNTGYLQKNSLKPADTAVYYCAALYTDSYLTSPVSYRYDYWGQGTQVSVSS | low polyreactivity
QVQLVESGGCLVQAGGSLRLSCAASGRIFYRYAMGWSRQAPGKVRELVATISWSGGSTYYAHSVKGRFTISRDNAKYTVYLQLNSLKPEDTAVYYCNAAYGNVSRVYYLIEHDYWGQGTQVTVSS | high polyreactivity
QVQLVESGGCLVQAGGSLRLSCAASGRILEYYTMGWYRQAPGKERELVAGITSGGTTNYADSVKGRFTISRDNAKNTVYLQMNSLKPEDTAVYYCALKQSYYFGSYFYGHEYYYWGQGTQVTVSS | low polyreactivity
QVQLVESGGCLVQAGGSLRLSCAASGRILLHNAMGWYRQAPGKERELVAAITNGGSTYYADSVKGRFTISRDNAKNTVYLQMNSLKPEDTAVYYCAARTRLAQYSRGRYRYDYWGQGTQVTVSS | high polyreactivity
QVQLVESGGCLVQAGGSLRLSCAASGRISVFYAMGWYRQAPGKERELVAAITRSGTTKYADSVKGRFTISRDNAKNTVYLQMNSLKPEDTAVYYCAVRRYRARFGYWGKGTQVTVSS | high polyreactivity
QVQLVESGGCLVQAGGSLRLSCAASGRIYIGYAMGWYRQAPGKERELVAAITTGGRTSYAVSVKGRFTISRDNAKNTVYLQMNSLKPVDTAVYYCAKRKSYNFPTRRPYYRRYYYWGQGTQVTVSS | high polyreactivity
QVQLVESGGCLVQAGGSLRLSCAASGRTFNYKAMGWYRQAPGKERELVAAINYSGDSTYYADSVKGRFTISRDNAKNTVYLQMNSLQPEDTAVYYCNADDYWYYYRYGYWGQGTQVTVSS | low polyreactivity
QVQLVESGGCLVQAGGSLRLSCAASGRTFSIYAMGWYRQAPGKEWELVASINGSGGSTYYADSVKGRFTISRDIAMNTVYLQMNSLKPEDTAVYYCAARASPRFNYWGQGSQVTVSS | high polyreactivity
QVQLVESGGCLVQAGGSLRLSCAASGRTFSLYAMGWYRQEPGQERELVASITDSTGGSTYYADSVKGRFTLSRDNAKNTVYLQMNSLKPEDTAVYYCAAQDYQYSDYQWWFGYWGLGTQVTVSS | low polyreactivity
QVQLVESGGCLVQAGGSLRLSCAASGRTFYGYAMGWYRQAPGKERELVATITSGGSTNYADSVKGRFTISRDNAKNTVYLQMNSLKPEDTAVYYCAATTRLYGRHRRYNYWGQGTQVTVSS | high polyreactivity
QVQLVESGGCLVQAGGSLRLSCAASGRTFYSYAMGWYRQAPGKERELVAAISYTGASTFYADSVKGRFTISRDNAKNTVYLQMNSLKPEDTAVYYCAARKVRFAVDYWGQGTQVTVSS | high polyreactivity
QVQLVESGGCLVQAGGSLRLSCAASGRTIRVYAMGWYRQAPGKARELVASITRAGGTYADSVKGRFTISRDIAKNPDYLQMNSLKPEDTAVYFCNARWQRSTGGRQRYDYWGQGTQVTVSS | high polyreactivity
QVQLVESGGCLVQAGGSLRLSCAASGRTYQNNAMGWYRQAPGKERELVAAISRSGASTYYADSVKGRFTISRDNAKNTVYLQMNSLKPEDTAVYYCAARYPRTAYDYWGQGTQVTVSS | low polyreactivity
QVQLVESGGCLVQAGGSLRLSCAASGSIFDYNAMGWYRQAPGKEREFVAAISSSAGSTYYADSVKGRFTISRDNAKNTVYLQMNSLKPEDTAVYDCAADWYDFSFPYYEYEYWGQGTQVTVSS | low polyreactivity
QVQLVESGGCLVQAGGSLRLSCAASGSIFDYNAMGWYRQAPGKEREFVAAISSSAGSTYYADSVKGRFTISRDNAKNTVYLQMNSLKPEDTAVYYCAADWYDFSFPYYEYEFWGQGTQVTVSS | low polyreactivity
QVQLVESGGCLVQAGGSLRLSCAASGSIFEYYAMAWSRQAPGKERELVAAINSGDITKYADSVKGRFTISRDNAKNTVYLQMNSLKPEDTAVYYCAKRLSSREYYWGQGSQVTVSS | high polyreactivity
QVQLVESGGCLVQAGGSLRLSCAASGSIFSGNAMGWYRQAPGKERELVAAISRSGGSKYYADSVKGRFTISRDNAKNTVYLQMNSLKPEDTAVYYFAAYRTHGPPRAIRFDYWGQGTQVTVSS | high polyreactivity
